Target: T1, GST-mAsxl1 (aa 1193-1514) (mouse, UniProt P59598 1193-1514)
T1 construct: also called GST-fused Asxl1 protein; source: E. coli, purified (glutathione-Sepharose beads)
T1 sequence (looked up): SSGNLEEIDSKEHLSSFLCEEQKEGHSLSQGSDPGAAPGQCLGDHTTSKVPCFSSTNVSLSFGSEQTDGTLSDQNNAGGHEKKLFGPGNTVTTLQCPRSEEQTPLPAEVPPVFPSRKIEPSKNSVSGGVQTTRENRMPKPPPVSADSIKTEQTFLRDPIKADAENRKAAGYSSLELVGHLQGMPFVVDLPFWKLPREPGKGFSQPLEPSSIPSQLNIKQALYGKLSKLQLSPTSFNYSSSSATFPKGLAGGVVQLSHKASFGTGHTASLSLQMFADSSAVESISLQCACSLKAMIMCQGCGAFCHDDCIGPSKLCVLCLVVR
Assay: pull-down; GST pull-down; GST-mAsxl1 on glutathione-Sepharose, His-hLHX2 purified on Ni-NTA; bound protein detected by anti-His Western blot
Settings: both partners purified

B1: His-hLhx2 (aa 42-221) (domain or fragment, human, UniProt P50458 42-221, looked up)
chain: MPSISSDRAALCAGCGGKISDRYYLLAVDKQWHMRCLKCCECKLNLESELTCFSKDGSIYCKEDYYRRFSVQRCARCHLGISASEMVMRARDLVYHLNCFTCTTCNKMLTTGDHFGMKDSLVYCRLHFEALLQGEYPAHFNHADVAAAAAAAAAAKSAGLGAAGANPLGLPYYNGVGTVQ
notes: LHX2, human (hLHX2), residues 42-221; also called His-tagged Lhx2 protein; source: E. coli, purified (Ni-NTA agarose beads)
B1: binds.

Reference: PMC12322997, “Asxl1 regulates optic cup development through interaction with Lhx2 and epigenetic modulation of Wnt signaling” (Animal Cells and Systems, 2025)
